Target: transferrin receptor (on Hepa 1-6 cells; in tissues of C57BL/6 wild-type mice) (mouse) (UniProt Q62351)
Assay: cell-based or functional assay

Chain of UniProt Q62351 (Q62351 whole entry): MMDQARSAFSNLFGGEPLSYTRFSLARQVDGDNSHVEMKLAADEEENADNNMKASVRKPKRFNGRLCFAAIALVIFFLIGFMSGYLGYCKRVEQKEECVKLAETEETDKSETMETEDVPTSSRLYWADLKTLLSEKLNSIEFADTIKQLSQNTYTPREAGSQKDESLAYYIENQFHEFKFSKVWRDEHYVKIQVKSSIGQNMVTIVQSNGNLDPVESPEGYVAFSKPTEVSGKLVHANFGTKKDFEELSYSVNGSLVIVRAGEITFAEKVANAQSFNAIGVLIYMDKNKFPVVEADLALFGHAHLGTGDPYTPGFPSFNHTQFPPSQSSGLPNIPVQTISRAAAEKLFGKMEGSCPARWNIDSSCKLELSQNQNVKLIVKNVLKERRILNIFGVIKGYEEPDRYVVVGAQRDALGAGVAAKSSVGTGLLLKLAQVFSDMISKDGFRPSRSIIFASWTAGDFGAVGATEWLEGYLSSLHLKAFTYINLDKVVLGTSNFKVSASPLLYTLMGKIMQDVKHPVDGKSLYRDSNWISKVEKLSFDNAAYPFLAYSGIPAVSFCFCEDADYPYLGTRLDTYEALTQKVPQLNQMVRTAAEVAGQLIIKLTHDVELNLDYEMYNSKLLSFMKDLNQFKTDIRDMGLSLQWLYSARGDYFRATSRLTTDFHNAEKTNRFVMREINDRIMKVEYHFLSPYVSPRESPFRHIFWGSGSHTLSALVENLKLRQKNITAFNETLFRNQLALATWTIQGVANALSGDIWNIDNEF

- HPRT expression in gastrocnemius of C57BL/6 mice, three days after a single i.v. dose (2 mg/kg of RNA): 31%
- HPRT expression in heart of C57BL/6 mice, three days after a single i.v. dose (2 mg/kg of RNA): 30%
- decrease in HPRT expression in Hepa 1-6 cells after 72 hour incubation with 100 nM complex: 50%
Substance: antiTfR-siHPRT complex: RI7 217 anti-TfR1 Fab (DTX-A-002) covalently linked via a non-cleavable GMBS linker to the HPRT siRNA (siHPRT)
